The target of the data set is LDL-R (human, UniProt P01130 22-788). In words: ELONA.
Chain of LDL-R (P01130 22-788): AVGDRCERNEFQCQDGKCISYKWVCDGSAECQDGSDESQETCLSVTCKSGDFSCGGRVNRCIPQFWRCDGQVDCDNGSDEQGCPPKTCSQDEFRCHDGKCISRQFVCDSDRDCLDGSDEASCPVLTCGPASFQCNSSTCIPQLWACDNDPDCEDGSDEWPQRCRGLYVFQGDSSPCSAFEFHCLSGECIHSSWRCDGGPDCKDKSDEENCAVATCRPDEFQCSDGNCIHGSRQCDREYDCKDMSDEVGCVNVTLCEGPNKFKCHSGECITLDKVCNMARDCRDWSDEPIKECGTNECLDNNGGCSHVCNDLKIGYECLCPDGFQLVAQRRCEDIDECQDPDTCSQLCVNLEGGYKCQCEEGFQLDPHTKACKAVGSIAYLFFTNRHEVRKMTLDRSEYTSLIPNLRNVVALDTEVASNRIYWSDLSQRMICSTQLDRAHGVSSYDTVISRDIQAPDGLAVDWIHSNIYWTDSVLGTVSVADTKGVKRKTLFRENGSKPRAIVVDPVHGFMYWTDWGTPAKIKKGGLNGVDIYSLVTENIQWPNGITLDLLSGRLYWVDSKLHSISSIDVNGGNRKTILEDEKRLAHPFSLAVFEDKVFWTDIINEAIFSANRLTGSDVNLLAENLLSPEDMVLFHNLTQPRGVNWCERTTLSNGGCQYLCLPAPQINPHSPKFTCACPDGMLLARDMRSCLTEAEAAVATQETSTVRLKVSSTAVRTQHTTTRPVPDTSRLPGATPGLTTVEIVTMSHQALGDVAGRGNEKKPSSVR

For CGGTCGGCGGGTGGGCGGGGGGAGAACGAGGTAGGGGTCA (ssDNA) [RNV-L7 truncated], the binding result is listed as “no binding”.

B1: RNV-L7 (ssDNA)
DNA: GGACAGGACCACACCCAGCGCGGTCGGCGGGTGGGCGGGGGGAGAACGAGGTAGGGGTCAGGCTCCTGTGTGTCGCTTTGT
Usually Kd stands for the free concentration of one partner at which half of the binding sites on the other are occupied at equilibrium, for simple one-to-one binding. A high value points to weaker binding. The molecule B1 came in with a Kd of 19.6 nM.

(Values after PMC6920325.)
